Data: patent publication US20200362049A1

Target: Recombinant, Histidine-tagged extracellular domain of human CD38 (human) (UniProt P28907)
Assay: BLI (Forte Bio), 1:1 fit

Kd: 9 nM
Substance: IB4, reference monoclonal agonistic mouse anti-human CD38 antibody
